# Laboratory results reported in patent US20100196398A1.
# Target: human CD105 (human) (UniProt P17813)
# Assay: FACS titration of FITC-labeled SN6 on HUVEC cells
# Chain of human CD105 (human) (P17813 26-658): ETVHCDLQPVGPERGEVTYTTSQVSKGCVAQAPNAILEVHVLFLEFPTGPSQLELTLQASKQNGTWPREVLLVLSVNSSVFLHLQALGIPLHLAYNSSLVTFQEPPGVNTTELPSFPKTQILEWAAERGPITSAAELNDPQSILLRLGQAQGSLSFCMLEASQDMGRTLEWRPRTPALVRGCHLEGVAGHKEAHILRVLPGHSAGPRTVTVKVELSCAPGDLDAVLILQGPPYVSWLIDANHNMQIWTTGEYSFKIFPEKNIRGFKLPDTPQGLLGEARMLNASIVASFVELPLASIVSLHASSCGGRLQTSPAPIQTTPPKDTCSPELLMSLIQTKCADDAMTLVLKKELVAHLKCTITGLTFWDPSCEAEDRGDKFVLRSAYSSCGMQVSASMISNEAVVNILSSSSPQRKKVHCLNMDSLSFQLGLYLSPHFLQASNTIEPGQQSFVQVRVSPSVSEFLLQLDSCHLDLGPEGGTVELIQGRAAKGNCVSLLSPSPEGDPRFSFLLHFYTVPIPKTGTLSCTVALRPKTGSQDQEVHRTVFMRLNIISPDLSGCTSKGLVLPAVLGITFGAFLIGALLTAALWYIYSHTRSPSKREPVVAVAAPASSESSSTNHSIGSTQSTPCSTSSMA
substance,measurement,value
SN6 antibody (Abcam),EC50,2 µg/mL
